B1: HuMab LC5002-007 (antibody, human IgG1, V domains shown)
VH: QVQLVQSGAEVKKPGSSVKVSCKVSGGTFSSYAFSWVRQAPGQGLEWMGRIIPILGRTNYAQKFQGRVTITADKSTSTAYMEVSSLRSEDTAVYYCAREGETLDYFYYGMDVWGQGTTVTVSS
VL: EIVLTQSPGTLSLSPGERATLSCRASQSVSSSYLAWYQQKPGQAPRLLIYGASSRAIGIPDRFSGSGSGTDFTLTISRLEPEDFAVYYCQHYGSSLTFGGGTKVEIK
notes: Human IgG1 kappa from a HuMab mouse hybridoma; Only the variable domains are tied to this antibody; also called hu-MAB<h-IL-13R alpha>LC.5002-007 (DSM ACC2712)
B2: HuMab LC5002-005 (antibody, V domains shown)
VH: EVQVLDSGGGLVQPGGSLRLSCTASGFTFRLYTMSWVRQTPGRGLEWVSGISGSGLSTYFADSVKGRFTISRDNSKNTVYLQMNSLRAEDTAVYYCAKEGDWIYFDSWGQGTLVIVSS
VL: DIQMTQSPSSLSASVGDRVTITCRASQGISSWLAWYQQKPEKAPKSLIYAASSLQSGVPSRFSGSGSGTDFTLTISSLQPEDFATYYCQQYNSHPPTFGQGTKLEIK
notes: Only the variable domains are tied to this antibody; also called hu-MAB<h-IL-13Ralpha>LC.5002-005 (DSM ACC2711)
B3: HuMab LC5002-002 (antibody, human IgG1, V domains shown)
VH: EVQLLESGGGLVQPGGSLRLSCAASGFTFNIYAMNWVRQAPGKGLEWVSVISGRGITTYYADSVKGRFTISRDNSKNTLYLQMNSLRADDTAVYYCAKGSSSWTDFDYWGQGTLVTVSS
VL: B2 VL with S31R, L33V, H94Y, P96W, L104V
notes: Human IgG1 kappa from a HuMab mouse hybridoma; Only the variable domains are tied to this antibody; also called hu-MAB<h-IL-13R alpha>LC.5002-002 (DSM ACC2709)
B4: HuMab LC5002-003 (antibody, V domains shown)
VH: B3 VH with G10D, V12I, N84D, D89E, S102Y
VL: B2 VL with H94Y, P96W, L104V
notes: Human IgG1 kappa from a HuMab mouse hybridoma; Only the variable domains are tied to this antibody; also called LC50002-003; hu-MAB<h-IL-13Ralpha>LC.5002-003 (DSM ACC2710)

Numbering of substitutions follows the chain as printed.

Four molecules from patent US20110086026A1 (ROCHE PALO ALTO, published 2011) can be followed below.

One assay concerns the target T1, Cynomolgus IL-13Rα1 expressed in transfected Ba/F3 cells (Cynomolgus, UniProt A0A7N9D0M5 20-425).
T1 construct: Stably transfected murine Ba/F3 cells
T1 sequence: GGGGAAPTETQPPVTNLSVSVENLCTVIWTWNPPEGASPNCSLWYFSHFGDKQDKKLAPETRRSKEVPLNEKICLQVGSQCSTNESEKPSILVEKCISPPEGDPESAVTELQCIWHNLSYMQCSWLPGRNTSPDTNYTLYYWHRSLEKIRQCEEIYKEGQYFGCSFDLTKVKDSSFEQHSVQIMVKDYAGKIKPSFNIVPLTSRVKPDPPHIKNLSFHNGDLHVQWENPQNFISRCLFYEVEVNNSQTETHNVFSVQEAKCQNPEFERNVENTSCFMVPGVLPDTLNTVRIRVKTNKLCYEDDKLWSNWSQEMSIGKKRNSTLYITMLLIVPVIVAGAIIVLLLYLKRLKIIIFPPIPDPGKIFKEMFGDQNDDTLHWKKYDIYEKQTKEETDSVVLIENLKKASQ
Briefly: FACS, transfected against parental Ba/F3 cells, 10 µg/ml. The protocol:
(§1) The gene coding for IL-13Rα1 was isolated by RT-PCR from Cynomolgus tissue and transfected into in the murine cell line Ba/F3. In order to test whether the HuMabs crossreact with Cynomolgus IL-13Rα1, the stably transfected Ba/F3 cells as well as the parental Ba/F3 cells were incubated with 10 μg/ml of HuMab and control antibodies. As positive control, a polyclonal goat-anti hIL-13Rα1 (R&D Systems) was used. Negative controls included were: a human IgG1 myeloma protein (Nordic) and normal goat serum. Bound antibodies were detected by FACS analysis using an antibody directed against human IgG conjugated with FITC to detect HuMabs and an antibody directed against goat IgG conjugated with FITC to detect goat antibodies. Mean fluorescence intensities (MFI) were compared for the individual antibodies tested on the transfected Ba/F3 line versus the parental line.
(§2) All HuMabs of the invention were able to bind to Cynomolgus IL-13Rα1 expressed in transfected Ba/F3 cells. As expected from the close homology between human and Cynomolgus IL-13Rα1, the polyclonal AF152 antibody also bound to the Cynomolgus IL-13Rα1.
For the molecule B1, the “Fold Increase in MFI in the presence of Cyno_IL-13Rα1” value (“Fold Increase in MFI in the presence” for short) was found to be 14.9.

As to B2, the “Fold Increase in MFI in the presence” value worked out at 86.7.

As to B3, the “Fold Increase in MFI in the presence” value was found to be 79.8.

Consider B4, for which the “Fold Increase in MFI in the presence” value is 79.

The target in another assay is T1, Cynomolgus IL-13Rα1 expressed in …. Briefly: FACS on Ba/F3 cells transfected with Cynomolgus IL-13Rα1, 10 µg/ml. How it is done:
as §1, §2
As to B1, the “MFI Ba/F3_Cyno_IL-13Rα1” value was determined as 19 MFI.

For B2, the “MFI Ba/F3_Cyno_IL-13Rα1” value is 102 MFI.

With B3, the “MFI Ba/F3_Cyno_IL-13Rα1” value was determined as 83.7 MFI.

Take B4: the “MFI Ba/F3_Cyno_IL-13Rα1” value is 82.4 MFI.

Another assay addresses T2, hIL-13Rα1:hFc chimeric protein (R&D Systems, UK) (human, UniProt P78552 22-343).
T2 construct: extracellular domain; Bought; also called chimeric hIL-13Rα1:hFc; not shown: human Fc (hFc) of the bought chimera
T2 sequence (looked up): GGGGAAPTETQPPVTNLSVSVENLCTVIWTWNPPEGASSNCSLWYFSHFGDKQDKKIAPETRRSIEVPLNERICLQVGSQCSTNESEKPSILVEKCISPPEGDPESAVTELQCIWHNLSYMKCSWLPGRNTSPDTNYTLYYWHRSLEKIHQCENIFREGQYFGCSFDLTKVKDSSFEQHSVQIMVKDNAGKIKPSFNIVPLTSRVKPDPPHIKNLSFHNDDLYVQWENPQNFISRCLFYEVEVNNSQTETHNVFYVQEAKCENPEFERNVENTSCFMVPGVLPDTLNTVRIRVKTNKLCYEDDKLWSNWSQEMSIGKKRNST
Briefly: SPR Biacore 3000, HuMab captured by anti-hFcγ, hIL-13Rα1:hFc as analyte, 1:1 Langmuir model. The protocol: For interaction analysis a Biacore 3000 instrument was used. As running and reaction buffer, HBS-P (10 mM HEPES, 150 mM NaCl, 0.005% polysurfactant P, pH 7.4) at 25° C. was used. Capturing molecules (goat anti-human-IgG, Fcγ specifc) were amine-coupled at a concentration of 20 μg/ml at a flow rate of 5 μl/min for 20 minutes. HuMabs were injected at a concentration of 1 μg/ml at a flow rate of 10 μl/min for 1 minute. Blocking of the free goat anti human IgG, Fcγ was achieved by injecting human gamma globulin at 500 nM and 30 μl/min for 3 minutes. Analyte (hIL-13Rα1:hFc chimeric protein) was injected for two minutes at five concentrations between 5.63 nM and 90 nM and washed with HBS-P for five minutes. Regeneration of the surface was accomplished by two injections of 100 mM HCl for 1 min each. The chip, assay format and sequence of injections and kinetic data correspond to the description in table 2. Negative control data (e.g. buffer curves) were subtracted from sample curves for correction of system intrinsic baseline drift and for noise signal reduction. BiaEvaluation version 4.01 was used for analysis of sensorgrams and for calculation of affinity data. Kinetic data were calculated by fitting kinetic data to a 1:1 Langmuir binding model (Table 2).
On the technique in general: Surface plasmon resonance follows binding to a sensor surface in real time, without labels.
A word on the Kd: it is the concentration at which binding is half-saturated. By koff is commonly meant the first-order rate constant of dissociation. The term kon denotes a measure of how fast the partners come together. A high value points to fast association. Take B1: the Kd is < 8.4 pM, the koff came to 1e-06 s⁻¹ and the kon came out at 119000 M⁻¹ s⁻¹.

As to B2, the affinity, expressed as Kd, was 18 pM; the koff turned out to be 3.12e-06 s⁻¹; the kon was 173000 M⁻¹ s⁻¹.

Regarding B4, the Kd was < 6.5 pM, the koff worked out at 1.4e-06 s⁻¹ and the kon came out at 210000 M⁻¹ s⁻¹.

For a further assay, the target named is T3, extracellular domain of hIL-13Rα1 cleaved from hIL-13Rα1:hFc chimeric protein (human, UniProt P78552 22-343).
T3 construct: extracellular domain; also called Cleaved hIL-13Rα1 molecules (MW 40 kDa)
T3 sequence (looked up): T2 sequence (looked up)
Briefly: SPR Biacore 3000, C1 chip, HuMab captured by anti-hFcγ, cleaved hIL-13Rα1 as analyte, 1:1 Langmuir model. The protocol:
For interaction analysis, a Biacore 3000 instrument was used. Running and reaction buffer was HBS-P (10 mM HEPES, 150 mM NaCl, 0.005% polysurfactant P, pH 7.4) at 25° C. Capturing antibody molecules (anti-hFcγ) were amine-coupled at a concentration of 100 μg/ml at a flow rate of 5 μl/min for 20 minutes. HuMabs were injected at concentrations of 10 μg/ml at a flow rate of 10 μl/min for 30 seconds. Cleaved hIL-13Rα1 molecules (MW 40 kDa) were injected for 200 seconds at seven concentrations between 1.56 nM and 100 nM and washed with HBS-P for five minutes. Regeneration of the surface was accomplished by two injections of 100 mM HCl for 1 min each at a flow rate of […]. The chip, assay format and sequence of injections and kinetic data correspond to the description in the following Table 3. Kinetic data were calculated by fitting kinetic data to a 1:1 Langmuir binding model.
For the molecule B1, binding was characterised by a dissociation constant (Kd) of 4400 pM, the koff worked out at 0.00083 s⁻¹ and the kon is 190000 M⁻¹ s⁻¹.

B2 displayed a Kd of 220 pM, an off-rate constant (koff) of 0.0003 s⁻¹ and an association rate constant (kon) of 1.4e+06 M⁻¹ s⁻¹.

On to B3, for which the dissociation constant Kd is 620 pM, the off-rate (koff) is 0.00065 s⁻¹ and the association rate constant (kon) is 1.1e+06 M⁻¹ s⁻¹.

Regarding B4, the Kd stood at 390 pM, the off-rate constant (koff) was 0.00051 s⁻¹ and the kon turned out to be 1.3e+06 M⁻¹ s⁻¹.
